The values that follow come from patent publication US20260029399A1.

Experiment in all cases: cell-based or functional assay
In assay [1] the target is T1, IL-13Rα1 receptor on Jurkat cells (UniProt P78552).
T1 sequence: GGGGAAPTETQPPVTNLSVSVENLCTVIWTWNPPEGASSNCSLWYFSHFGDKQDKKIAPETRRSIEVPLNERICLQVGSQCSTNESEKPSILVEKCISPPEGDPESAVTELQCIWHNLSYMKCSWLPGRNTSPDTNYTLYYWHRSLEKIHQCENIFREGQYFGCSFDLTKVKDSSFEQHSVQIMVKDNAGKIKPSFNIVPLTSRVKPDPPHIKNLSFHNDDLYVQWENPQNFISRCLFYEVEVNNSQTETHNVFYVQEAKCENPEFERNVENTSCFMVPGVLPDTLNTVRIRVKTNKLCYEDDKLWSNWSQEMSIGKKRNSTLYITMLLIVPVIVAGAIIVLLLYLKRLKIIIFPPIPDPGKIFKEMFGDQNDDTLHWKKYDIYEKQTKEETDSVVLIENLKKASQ

Assay [2] concerns the target 868 TCR (Beta Chain-P2A-Alpha Chain) on 868 TCR-expressing T cells.
Assay [3] has as its target CMV C7 TCR on C7 TCR-expressing T cells.
Assay [4] addresses IG4 TCR (variant not stated) on IG4 TCR-expressing T cells.

Chain of CMV C7 TCR on C7 TCR-expressing T cells (chain, as listed by the source): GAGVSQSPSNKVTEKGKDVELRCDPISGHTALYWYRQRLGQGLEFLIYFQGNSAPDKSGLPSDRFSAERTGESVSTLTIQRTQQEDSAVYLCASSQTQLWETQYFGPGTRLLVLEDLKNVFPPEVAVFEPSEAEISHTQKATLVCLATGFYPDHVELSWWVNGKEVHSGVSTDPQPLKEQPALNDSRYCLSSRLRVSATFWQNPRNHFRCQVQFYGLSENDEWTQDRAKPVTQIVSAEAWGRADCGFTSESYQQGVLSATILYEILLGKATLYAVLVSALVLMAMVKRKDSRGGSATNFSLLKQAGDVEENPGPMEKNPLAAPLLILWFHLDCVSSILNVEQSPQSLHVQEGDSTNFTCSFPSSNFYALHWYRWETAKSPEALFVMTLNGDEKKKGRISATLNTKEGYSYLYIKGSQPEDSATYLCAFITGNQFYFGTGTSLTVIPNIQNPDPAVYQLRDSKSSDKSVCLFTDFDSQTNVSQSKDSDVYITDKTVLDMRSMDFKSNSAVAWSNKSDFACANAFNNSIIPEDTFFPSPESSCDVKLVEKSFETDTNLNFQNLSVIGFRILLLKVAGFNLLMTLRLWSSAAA
Chain of 868 TCR (Beta Chain-P2A-Alpha Chain) on 868 TCR-expressing T cells (chain, as listed by the source): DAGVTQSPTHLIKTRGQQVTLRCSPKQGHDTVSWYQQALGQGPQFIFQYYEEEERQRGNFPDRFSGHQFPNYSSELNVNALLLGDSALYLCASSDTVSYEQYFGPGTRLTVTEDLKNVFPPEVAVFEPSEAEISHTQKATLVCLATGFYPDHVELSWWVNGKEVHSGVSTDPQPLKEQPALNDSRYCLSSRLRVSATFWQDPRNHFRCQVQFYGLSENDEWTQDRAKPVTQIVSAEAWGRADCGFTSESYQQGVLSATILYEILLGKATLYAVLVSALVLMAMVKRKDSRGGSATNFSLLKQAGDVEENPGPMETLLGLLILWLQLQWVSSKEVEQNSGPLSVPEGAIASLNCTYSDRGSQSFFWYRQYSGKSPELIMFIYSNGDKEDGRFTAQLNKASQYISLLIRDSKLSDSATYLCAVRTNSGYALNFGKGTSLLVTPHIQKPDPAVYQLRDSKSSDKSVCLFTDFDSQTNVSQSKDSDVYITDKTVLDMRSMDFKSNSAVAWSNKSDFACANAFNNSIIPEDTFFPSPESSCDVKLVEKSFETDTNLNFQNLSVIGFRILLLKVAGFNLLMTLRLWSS

The substance “IL-13 - GAPGAS linker (SEQ ID NO: 5) - PDGFR transmembrane domain, displayed on lentivirus (from UniProt P35225 35-146) (ligand)” gave an infection of Jurkat cells bearing the IL13Rα1 receptor (GFP reporter) in assay [1] of 1%.

With “IL-13 - CD8α stalk linker (SEQ ID NO: 4) - PDGFR transmembrane domain, displayed on lentivirus (from UniProt P35225 35-146) (ligand)”, the infection of Jurkat cells bearing the IL13Rα1 receptor (GFP reporter) in assay [1] is 88.5%.

In assay [2], “disulfide-stabilized SL9 pMHC displayed on lentivirus (peptide-MHC)” registered a transduction rate of 22.1%.

“IL-13 extracellular targeting domain: full-length IL-13 - IgG4 hinge linker - PDGFR transmembrane domain, displayed on lentivirus (from UniProt P35225 35-146) (ligand)” gave a transduction (cells expressing the GFP reporter after mixing) in assay [1] of 85.2%.

With “IL-13 - PDGFR linker (SEQ ID NO: 3) - PDGFR transmembrane domain, displayed on lentivirus (from UniProt P35225 35-146) (ligand)”, the infection of Jurkat cells bearing the IL13Rα1 receptor (GFP reporter) in assay [1] came out at 6.1%.

Consider “disulfide-stabilized CMV NLV pMHC displayed on lentivirus (peptide-MHC)”, for which the transduction rate in assay [3] amounted to 21.8%.

Regarding “disulfide-stabilized NYESO-1 pMHC displayed on lentivirus (peptide-MHC)”, in assay [4], the transduction rate was determined as 19%.
